Reference: US20080026077A1, “METHODS AND COMPOSITIONS OF GENE DELIVERY AGENTS FOR SYSTEMIC AND LOCAL THERAPY” (priority 2002, published 2008)
Read-outs that look alike come from different tables or passages of the source. Marks after values point to notes of the source that are not given here. No end group written: not given here.

What was measured:
[1] = Critical micellar concentration (CMC) of BACs, dye solubilization method; format: physicochemical; settings: DPH dye solubilization, 50 mM Tris buffer pH 8.0
Protocol: Briefly, serial dilutions of a 7 mg/ml solution of the BACs are made in 50 mM Tris buffer pH 8.0. 10 ul of the dye 1,6-diphenyl-1,3,5-hexatriene (DPH, Sigma) (0.4 mM in methanol) is added to each ml. After overnight RT incubation in the dark, the absorbance of the samples at 356 nm is recorded. Linear regression of the data points above baseline was performed and the calculated CMC derived from the x intercept. The results for thirteen different BACs are shown in Table 1 based on a chendoxycholamide of the detailed motifs.

[2] = tibia, 24 hours after oral dosing, 4 mg/kg alendronate, with or without 4× molar BAC-A6
Protocol: Male Swiss CFW mice 25-28 g are fed or fasted overnight and subsequently lightly anesthetized with isoflurane by inhalation prior to oral dosing. Mice are administered 0.2 ml of the dosing solution. 24 hrs after dosing the mice are sacrificed and the tibia collected. […] The amount of 14CO2 is quantified by scintillation counting.

[3] = Octanol/buffer partitioning of carboxyfluorescein mixed with BAC analogs; format: physicochemical; settings: 4 nmoles carboxyfluorescein, 281 nmoles BAC
Protocol: Partitioning of the fluorescent compound carboxyfluorescein by a BAC of Formula I into the octanol phase of an octanol/buffer portioning system for a series of BAC compounds is determined following standard methods. […] The mixture is vortexed for 5 mins and the incubated at room temperature for 3 hours. The solution is centrifuged to facilitate complete phase separation and a 100 μl of aqueous material is withdrawn for fluorescent measurement.

[4] = Oral gavage of zanamivir with various BAC analogs, plasma zanamivir; format: in vivo, Male Swiss CFW mice; settings: fasted mice, 1 mg/kg zanamivir, BAC 1x equal molar; for Increase in concentration above H2O control / Mean Plasma Zanamivir Concentration: 30 min
Excerpt: Plasma zanamivir concentrations are quantified by LC/MS/MS analysis.

[5] = In situ intestinal absorption, single pass perfusion of radiolabeled BAC/pDNA; format: in vivo; settings: complexes with membrane translocating BAC
Protocol: In order to examine the capability of the BAC/pDNA complex to bind and/or be absorbed onto the intestinal lumen cells the absorption of nicked-radiolabeled pDNA in a single pass perfusion experiment is tested. Using isolated ileal or jejunal segments radio-labeled BAC/pDNA mixtures mixture is mixed with HEPES buffer, pH 7.4, and perused at jejunal (filled symbols) and ileal (open symbols) sites. After 30 min of steady state, sample fractions are collected and the absorbed fraction of BAC/pDNA calculated. BAC/pDNA mixtures used are pDNA:BAC 1:27,000 neutrally charged and 1:54,000 molar ratios positively charged. Uncomplexed pDNA is used as a control.

| Molecule | Calculated CMC concentration [1] | Increase in concentration above H2O control [4] [fold] | Mean Plasma Zanamivir Concentration [4] [ng/mL] | further results |
| --- | --- | --- | --- | --- |
| D9: chendoxycholamide bile acid conjugate, peptide Z = -RARARARAR (not fully specified (N-terminus); printed as -RARARARAR; also: chenodeoxycholamide bile acid conjugate, attachment not placed) | 1.7 mM | – | – | – |
| NCCCC(O)(P(=O)(O)O)P(=O)(O)O [Alendronate, alendronate] | – | – | – | Bone deposition of 14C-alendronate, mean dpm/mg bone ([2]; Fasted mice): 3.92 dpm/mg; Bone deposition of 14C-alendronate, mean dpm/mg bone ([2]; Fed mice): 9.51 dpm/mg |
| Carboxyfluorescein | – | – | – | Fluorescence Units ([3]; aqueous phase after octanol/buffer partitioning): 78614; LogD ([3]; carboxyfluorescein, octanol/buffer): −1.638 |
| B7: chendoxycholamide bile acid conjugate, peptide Z = -RRRARRR (not fully specified (N-terminus); printed as -RRRARRR; also: chenodeoxycholamide bile acid conjugate, attachment not placed) | >5.0* mM | 4 | 228 | – |
| membrane translocating BAC: 12-residue membrane translocating peptide (SEQ ID NO: 23) coupled to bile acid by an ether linkage (AAVLLPVLLAAP; also: coupled to bile acid by an ether linkage, site not given here) | – | – | – | in situ intestinal absorption compared with FIG. 7 [5]: comparable results to those depicted in FIG. 7 |
| C8: chendoxycholamide bile acid conjugate, peptide Z = -RRARRARR (not fully specified (N-terminus); printed as -RRARRARR; also: chenodeoxycholamide bile acid conjugate, attachment not placed) | 4.4 mM | 4 | 223 | – |
| N-E9 motif of chenoxycholamide (RAWARAWAR; also: chenodeoxycholamide bile acid conjugate, site not given here) | 1.2 mM | 22 | 1227 | – |
| CC(=O)N[C@H]1[C@H]([C@H](O)[C@H](O)CO)OC(C(=O)O)=C[C@@H]1N=C(N)N [Zanamivir, zanamivir, reference compound] | – | 1 | – | concentration at 30 min ([4]; male, Swiss CFW, mouse, plasma): 0.055 µg/mL |
